The supplement of paper PMC9112550, “Optimization of the antimicrobial peptide Bac7 by deep mutational scanning” (BMC Biology, 2022)

Tested on: Escherichia coli TOP10
Assay: shrunken log2 fold change of peptide-encoding DNA abundance (4.5 h post-induction vs induction); higher = less antimicrobial activity (less host growth inhibition)
Conditions: time post-induction: 4.5 h; library: site-saturation at positions 5, 18, 19, 20
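Also: peptides expressed intracellularly from a pBAD plasmid library in pooled LB shake-flask culture, induced with 0.3% L-arabinose, DNA abundance read by NGS, three biological replicates, DESeq2 with apeglm shrinkage.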

| Sequence | shrunken log2 fold change |
| --- | --- |
| RRIRMRPPRLPRPRPRPWCHPRP | 0.0355 |
| RRIRMRPPRLPRPRPRPWDWPRP | 0.794 |
| RRIRMRPPRLPRPRPRPWFDPRP | 0.00362 |
| RRIRMRPPRLPRPRPRPWFGPRP | 0.134 |
| RRIRMRPPRLPRPRPRPWFRPRP | -0.305 |
| RRIRMRPPRLPRPRPRPWFVPRP | -0.283 |
| RRIRMRPPRLPRPRPRPWGFPRP | 0.0809 |
| RRIRMRPPRLPRPRPRPWGQPRP | -0.0394 |
| RRIRMRPPRLPRPRPRPWGRPRP | 0.389 |
| RRIRMRPPRLPRPRPRPWHDPRP | 0.162 |
| RRIRMRPPRLPRPRPRPWHIPRP | -0.0015 |
| RRIRMRPPRLPRPRPRPWHMPRP | 0.00487 |
| RRIRMRPPRLPRPRPRPWIQPRP | -0.228 |
| RRIRMRPPRLPRPRPRPWKAPRP | 0.0518 |
| RRIRMRPPRLPRPRPRPWKNPRP | 0.0328 |
| RRIRMRPPRLPRPRPRPWLAPRP | 0.0737 |
| RRIRMRPPRLPRPRPRPWLKPRP | -0.11 |
| RRIRMRPPRLPRPRPRPWNQPRP | -0.0405 |
| RRIRMRPPRLPRPRPRPWNRPRP | -0.51 |
| RRIRMRPPRLPRPRPRPWQHPRP | 0.0948 |
| RRIRMRPPRLPRPRPRPWRNPRP | -0.00207 |
| RRIRMRPPRLPRPRPRPWSFPRP | -0.33 |
| RRIRMRPPRLPRPRPRPWTVPRP | -0.248 |
| RRIRMRPPRLPRPRPRPYAAPRP | 0.364 |
| RRIRMRPPRLPRPRPRPYCKPRP | -1.02 |

| Sequence | shrunken log2 fold change |
| --- | --- |
| RRIRMRPPRLPRPRPRPYCWPRP | -0.134 |
| RRIRMRPPRLPRPRPRPYCYPRP | -0.13 |
| RRIRMRPPRLPRPRPRPYDFPRP | -0.00149 |
| RRIRMRPPRLPRPRPRPYDHPRP | -0.141 |
| RRIRMRPPRLPRPRPRPYDKPRP | -0.351 |
| RRIRMRPPRLPRPRPRPYDPPRP | -0.328 |
| RRIRMRPPRLPRPRPRPYFQPRP | -0.759 |
| RRIRMRPPRLPRPRPRPYIGPRP | -0.00926 |
| RRIRMRPPRLPRPRPRPYIKPRP | -0.86 |
| RRIRMRPPRLPRPRPRPYIWPRP | -0.402 |
| RRIRMRPPRLPRPRPRPYKAPRP | 0.00361 |
| RRIRMRPPRLPRPRPRPYLCPRP | -0.165 |
| RRIRMRPPRLPRPRPRPYLKPRP | -0.00107 |
| RRIRMRPPRLPRPRPRPYMKPRP | -0.0154 |
| RRIRMRPPRLPRPRPRPYMMPRP | -0.111 |
| RRIRMRPPRLPRPRPRPYNIPRP | -0.358 |
| RRIRMRPPRLPRPRPRPYPKPRP | 0.0427 |
| RRIRMRPPRLPRPRPRPYQSPRP | -0.118 |
| RRIRMRPPRLPRPRPRPYSNPRP | -0.834 |
| RRIRMRPPRLPRPRPRPYSPPRP | -0.199 |
| RRIRMRPPRLPRPRPRPYSVPRP | 0.0409 |
| RRIRMRPPRLPRPRPRPYTNPRP | -0.165 |
| RRIRMRPPRLPRPRPRPYTPPRP | -0.847 |
| RRIRMRPPRLPRPRPRPYVFPRP | -0.368 |
| RRIRMRPPRLPRPRPRPYWEPRP | -0.0124 |

| Sequence | shrunken log2 fold change |
| --- | --- |
| RRIRMRPPRLPRPRPRPYWKPRP | 0.0275 |
| RRIRMRPPRLPRPRPRPYWMPRP | -1.18 |
| RRIRMRPPRLPRPRPRPYWQPRP | -0.312 |
| RRIRMRPPRLPRPRPRPYYKPRP | -0.611 |
| RRIRMRPPRLPRPRPRPYYNPRP | -0.709 |
| RRIRNRPPRLPRPRPRPAAAPRP | 0.43 |
| RRIRNRPPRLPRPRPRPAAFPRP | -0.0633 |
| RRIRNRPPRLPRPRPRPACMPRP | 0.0165 |
| RRIRNRPPRLPRPRPRPADKPRP | 0.0545 |
| RRIRNRPPRLPRPRPRPAECPRP | 0.0508 |
| RRIRNRPPRLPRPRPRPAEFPRP | 0.0274 |
| RRIRNRPPRLPRPRPRPAEKPRP | 0.0519 |
| RRIRNRPPRLPRPRPRPAEQPRP | -0.018 |
| RRIRNRPPRLPRPRPRPAERPRP | -0.117 |
| RRIRNRPPRLPRPRPRPAFDPRP | 0.235 |
| RRIRNRPPRLPRPRPRPAGKPRP | -0.0122 |
| RRIRNRPPRLPRPRPRPAGLPRP | -0.118 |
| RRIRNRPPRLPRPRPRPAHNPRP | -0.259 |
| RRIRNRPPRLPRPRPRPAHTPRP | 0.121 |
| RRIRNRPPRLPRPRPRPAINPRP | 0.0991 |
| RRIRNRPPRLPRPRPRPAIRPRP | -0.0992 |
| RRIRNRPPRLPRPRPRPAKTPRP | 0.0732 |
| RRIRNRPPRLPRPRPRPAKWPRP | 0.112 |
| RRIRNRPPRLPRPRPRPALLPRP | 0.504 |
| RRIRNRPPRLPRPRPRPAMIPRP | -0.254 |

| Sequence | shrunken log2 fold change |
| --- | --- |
| RRIRNRPPRLPRPRPRPAMMPRP | 0.0394 |
| RRIRNRPPRLPRPRPRPAMVPRP | -0.0286 |
| RRIRNRPPRLPRPRPRPANRPRP | -0.029 |
| RRIRNRPPRLPRPRPRPAPYPRP | 0.0296 |
| RRIRNRPPRLPRPRPRPAQMPRP | 0.177 |
| RRIRNRPPRLPRPRPRPASQPRP | 0.545 |
| RRIRNRPPRLPRPRPRPATIPRP | -0.44 |
| RRIRNRPPRLPRPRPRPATRPRP | 0.322 |
| RRIRNRPPRLPRPRPRPAWVPRP | 0.147 |
| RRIRNRPPRLPRPRPRPAYGPRP | 0.118 |
| RRIRNRPPRLPRPRPRPCATPRP | -0.0524 |
| RRIRNRPPRLPRPRPRPCCEPRP | 0.0852 |
| RRIRNRPPRLPRPRPRPCCIPRP | -0.00191 |
| RRIRNRPPRLPRPRPRPCCMPRP | -0.0549 |
| RRIRNRPPRLPRPRPRPCDFPRP | -0.529 |
| RRIRNRPPRLPRPRPRPCECPRP | 0.0219 |
| RRIRNRPPRLPRPRPRPCFCPRP | -0.337 |
| RRIRNRPPRLPRPRPRPCGNPRP | -0.0905 |
| RRIRNRPPRLPRPRPRPCHYPRP | 0.00673 |
| RRIRNRPPRLPRPRPRPCINPRP | -0.548 |
| RRIRNRPPRLPRPRPRPCIQPRP | 0.00396 |
| RRIRNRPPRLPRPRPRPCKCPRP | 0.00489 |
| RRIRNRPPRLPRPRPRPCKDPRP | -0.00844 |
| RRIRNRPPRLPRPRPRPCMKPRP | -0.507 |
| RRIRNRPPRLPRPRPRPCPHPRP | -0.01 |

| Sequence | shrunken log2 fold change |
| --- | --- |
| RRIRNRPPRLPRPRPRPCQVPRP | -0.106 |
| RRIRNRPPRLPRPRPRPCRRPRP | -0.103 |
| RRIRNRPPRLPRPRPRPCTLPRP | -0.191 |
| RRIRNRPPRLPRPRPRPCTWPRP | 0.0117 |
| RRIRNRPPRLPRPRPRPCVAPRP | -0.23 |
| RRIRNRPPRLPRPRPRPCVRPRP | -0.109 |
| RRIRNRPPRLPRPRPRPCYCPRP | -0.00992 |
| RRIRNRPPRLPRPRPRPDCVPRP | -0.106 |
| RRIRNRPPRLPRPRPRPDDNPRP | -0.0156 |
| RRIRNRPPRLPRPRPRPDEFPRP | -0.0168 |
| RRIRNRPPRLPRPRPRPDEIPRP | -0.043 |
| RRIRNRPPRLPRPRPRPDELPRP | -0.134 |
| RRIRNRPPRLPRPRPRPDFVPRP | -0.045 |
| RRIRNRPPRLPRPRPRPDGIPRP | 0.0081 |
| RRIRNRPPRLPRPRPRPDHSPRP | -0.22 |
| RRIRNRPPRLPRPRPRPDKGPRP | 0.00408 |
| RRIRNRPPRLPRPRPRPDKQPRP | 0.00349 |
| RRIRNRPPRLPRPRPRPDKRPRP | -0.0491 |
| RRIRNRPPRLPRPRPRPDMKPRP | -0.423 |
| RRIRNRPPRLPRPRPRPDQRPRP | 0.021 |
| RRIRNRPPRLPRPRPRPDRSPRP | -0.043 |
| RRIRNRPPRLPRPRPRPDRTPRP | -0.161 |
| RRIRNRPPRLPRPRPRPDSIPRP | -0.307 |
| RRIRNRPPRLPRPRPRPDSTPRP | -0.028 |
| RRIRNRPPRLPRPRPRPDSVPRP | 0.119 |

| Sequence | shrunken log2 fold change |
| --- | --- |
| RRIRNRPPRLPRPRPRPDVHPRP | 0.0115 |
| RRIRNRPPRLPRPRPRPDVKPRP | -0.412 |
| RRIRNRPPRLPRPRPRPDVPPRP | -0.199 |
| RRIRNRPPRLPRPRPRPDYRPRP | -0.668 |
| RRIRNRPPRLPRPRPRPDYSPRP | -0.0548 |
| RRIRNRPPRLPRPRPRPEAAPRP | 0.902 |
| RRIRNRPPRLPRPRPRPEAFPRP | 0.0792 |
| RRIRNRPPRLPRPRPRPEDDPRP | -0.01 |
| RRIRNRPPRLPRPRPRPEEGPRP | 0.234 |
| RRIRNRPPRLPRPRPRPEENPRP | -0.00776 |
| RRIRNRPPRLPRPRPRPEFIPRP | -0.304 |
| RRIRNRPPRLPRPRPRPEFLPRP | 0.00817 |
| RRIRNRPPRLPRPRPRPEGRPRP | 0.177 |
| RRIRNRPPRLPRPRPRPEHAPRP | 0.0107 |
| RRIRNRPPRLPRPRPRPEHSPRP | 0.0507 |
| RRIRNRPPRLPRPRPRPEHYPRP | -0.38 |
| RRIRNRPPRLPRPRPRPEIRPRP | 0.126 |
| RRIRNRPPRLPRPRPRPEKNPRP | 0.907 |
| RRIRNRPPRLPRPRPRPEKQPRP | 0.0721 |
| RRIRNRPPRLPRPRPRPEKYPRP | -0.805 |
| RRIRNRPPRLPRPRPRPELEPRP | 0.47 |
| RRIRNRPPRLPRPRPRPELGPRP | 0.193 |
| RRIRNRPPRLPRPRPRPEMIPRP | -0.0601 |
| RRIRNRPPRLPRPRPRPENLPRP | 0.00699 |
| RRIRNRPPRLPRPRPRPERLPRP | 0.0695 |
